Test: soluble on expression in E. coli; label from the status in PepcDB or PDB records

Soluble on expression in E. coli, not soluble:
MGSDKIHHHHHHMSHVSYAEPPAQGWDIHCHTVFSDGTETPRTLVEQARKLGLHGVAIADHDTTAGWDEATEASEEIGLPLLLGTEITAVDEDVSVHMLAFQYDPSNEHISSMFANTRAARLRRTKRMVERLSQDFPITWDDVLAQVKEGERTTIGRPHIADALVAAGVYETRSDAFADAVSAKSKYYIPTPSPSTHEVIAAVKGAGGVVVAAHAGDPQRNRRLLSDEQLDAMIADGLDGLEVWHRGNPPEQRERLLTIAARHDLLVTGGSDWHGKGKPNGLGENLTDDDTVREILCRGVDLIGRVGSSHAA
MGSDKIHHHHHHMSILYEERLDGALPDVDRTSVLMALREHVPGLEILHTDEEIIPYECDGLSAYRTRPLLVVLPKQMEQVTAILAVCHRLRVPVVTRGAGTGLSGGALPLEKGVLLVMARFKEILDINPVGRRARVQPGVRNLAISQAVAPHNLYYAPDPSSQIACSIGGNVAENAGGVHCLKYGLTVHNLLKIEVQTLDGEALTLGSDALDSPGFDLLALFTGSEGMLGVTTEVTVKLLPKPPVARVLLASFDSVEKAGLAVGDIIANGIIPGGLEMMDNLSIRAAEDFIHAGYPVDAEAILLCELDGVESDVQEDCERVNDILLKAGATDVRLAQDEAERVRFWAGRKNAFPAVGRISPDYYCMDGTIPRRALPGVLEGIARLSQQYDLRVANVFHAGDGNMHPLILFDANEPGEFARAEELGGKILELCVEVGGSISGEHGIGREKINQMCAQFNSDEITTFHAVKAAFDPDGLLNPGKNIPTLHRCAEFGAMHVHHGHLPFPELERF
MGSDKIHHHHHHMSKIGETPLDMGLKDAIIGIFIWNKEKGIFEPFENRLRKKARALLEYYTDLANDELKPYVISKTIIDNVVDEIKDKTLIPLPNEPLRVAFPNCTLEWKISHGRYVPSFVLAEERTPEHFAFHYIPHKIHLEELVKINEEVLSARDIPIDLIEDLARRLCPKSLEVFKQWANEKWVTLFEIIGYTLFPKIEFRKAFMILGPRGTGKSTFINLIKKLLGRGNVVNIPLHILFGDKNRFVLAELYHKLVNAVSETKEYNLDDMDTLKVLTGGDRITADVKFKDPITFTPYAKLVIASNKPPTIRDKNDMAFWHRWLIIEFPNQFEDNTAWGDKTFTEDELEGILTVSILAFSRVLLHGKFDFEQTEEEVRGIWLSTIDYVYKFVKEKLKHGEIMITKNADDYVRVKELYRMYLEYCSTNGYNATTYKGFVRRLRDYFNLTVVMKNVEGKRFRAVVGIKINTVQTNETTGGDYGEFLNYILKNNHMIKEFADLVRDFGSTEKANVFIDFCTKKNMCFSRGIDAWEISIQPRGFSFL
MGSDKIHHHHHHMSKLSNLITQYCPEGVEYKTLGECGKFYGGLTGKSKKDFEDGNSKFITYKNVYSNPALCLDVEDKVRIEPGERQRTLEYGDIVFTGSSETPDECGISSVVAEIPEENLYLNSFCFIFRFDDPSILLPDFAKHLFRSSELRYQIGKTASGVTRYNVSKKLMGKVSFPVPPLEVQREIVRVLDSFTLLTAELTAELTARKQQYEFYRDYLLNGNSDYDICNLGDVCDVVAGGTPSRKVSDYWEDGCIPWLGSTVCKNKKNVDEPTEFITELGLEKSSAKMMKKDTTLIALVGATIGKVAFTTFDVAINQNIAGVYPKDTSKINPSYIYYACTTLYPHFLNLTQGSKLAMANLTFVRGLKISVPPIDVQNHLVNVLDNFESITSDLSIGLPAEIEARKKQYEYYRDALLTYASTGKIIARQTEHN
MGSDKIHHHHHHMSKLVTIYGGSGFVGRYIARRMAKEGWRVRVAVRRPNEAMHVKPYGAVGQVEPVLCNLRDDNSVAQTMRGADAVVNCVGVLNELGRNSFDAVQAEGAERIARIAAEQGVARMVHVSAIGADGDSDSAYSRSKALGEAGVLRHMPDAMILRPSVIFGTEDQFFNRFAGMTRFGPFLPVVGAETRFQPVYVDDVARAAVKGVLGQAPGGVYELGGPDVETFRALMQRMLGVIHRKRIIIALPFFAARIMAGMLDVAKFVSFQLFPNNILTRDQLKNLRRDNVVSEGAKGFADLGIAPEPMDTVLPAYLWKFRPNGQYDEIQASAKNLRA
MGSDKIHHHHHHMSKRMIITVGDARVGKSTVIKLLLEIFAQQGKRIKVYNQESFPVFQAYEHIATIKKFNLSNDDADAITDDLNHPELDVMIVDMPGQDIEKVIQYIESASLFEVVVKFGWNLTFLQPISHRKDCIYYLNAIIQNATNNANYVVVKNYHFAPEFREYEEKMRKKLLIIGGTEVELMALHRNHYQAMEKADKPYSQVCQDLSIILFWRSFIFQWIKKFHHSVMNNHLAIKYLGLD
MGSDKIHHHHHHMSLHSDILVVGAGPAGLSFAAELAGSGLKVTLIERSPLTVLQNPPYDGREIALTHFSREIMQRLGMWDKIPENEIYPLRDAKVLNGRSDYQLHFPQPTEARGEPADCLGYLISNHNIRRAAYEVVSQLDNVSILTDTAVKEVKTSDNEAQVFLENGDILTARLLLAADSRFSQTRRQLGISSDMHDYSRTMFVCRMKHTLSNQHTAYECFHYGRTIALLPLEKRLTNTVITVDTDKINSVQNLSPEELAASVKEQLKGRLGDMELVSSIHHYPLVGMIAKRFYGKRSALIGDAAVGMHPVTAHGFNLGLSSADILAKLILEAEQRGQDIGAASLLEKYSSKHMLHAHPLYHGTNMMLKLFTNETAPAKLLRGLVLRAGNNFPPLKKLITKQLTG
MGSDKIHHHHHHMSLRRIMVTAVRNLHPVTLLPSPRINILYGANGSGKTSVLEAVHLLGLARSFRSTRLNPVIQYEQAACTVFGEVQLTEGGTSNLGVSRERQGEFTIRIDGQNARSAAQLAELLPLQLINPDSFRLLEGAPKIRRQFLDWGVFHVEPRFLPAWQRLQKALRQRNSWLRHGTLDPASQAAWDRELCLASAEIDEYRRNYIKALKPVFERTLSELVELDGLTLSYYRGWDKDRELQEVLASSLLRDQQMGHTQAGPQRADLRLRLAGNNAADILSRGQQKLVVCALRIAQGHLVSQARRGHCIYLVDDLPSELDDQHRRALCRLLEELRCQVFITCVDHELLREGWQTETPVALFHVEQGRITQTHDHRE
MGSDKIHHHHHHMSNLKPDSVIACLDCPNHVQAVLEASMWASIRLQAPIGLLYSVPSLQQKAAVDYSGCLNIDDENTLLDQFTAKEHLSNCELKAQGKRLLHQASSYCEQQRHKIKTYTLHRHEKLDESINYVDDQAQLIVIGHHVTCKSTLSQLIRSSHCPILVTHAPFLPPTSALFAFDNSPTSHKMLNWLCKTPLVRALMIHIVMVSKENSENCDALREAYARLKQAGIKCKKTLLDCRDVTSALTYYQHDNDIGLLMTGAFAQPRLIELLKGSDTKKLLGSTTTPYLLFPKA
MGSDKIHHHHHHMSNNIFTVYGEVPELVEKKTKEIVNDYLGQKIDDFNYVKYNLYESDLTPIIEETLTMPFFSNKKAIVVKNSYVFTGEKFSKDLNHNSDELIKFLEKYDGENLIIFEVYQPKLDERKKLTKTLKKNAQLKKIEQMSEKELKHWIKNTLNNNYKDIKQDALELFIELTGVNYNIVSQELEKLILFIGERPIINKDDIDLIINRSLEQNVFLLTEYIQKGNKNKAIQLVNDLIIMKEEPIKLLALITSNYRLYYQCKILSQKGYSGQQIAKTVNAHPYRVKLALNQSRHYKLESLFNIINACAETDYKLKSSYMDKQLILELFILSL
MGSDKIHHHHHHMSNSLKASTTGLGIVDKARKRLGWTKTSTACWWQDAHTSRATLRRFWQGDRIQQEIFIAICQAVGINDWQNIAEIPNADFEETSTQYLDWDDAPDLESFYGRNQELAQLEEWILGDRCKLIIITGIAGIGKTALALALADLLQLKFDGLIWKTLHSVPSLVPLLDGLLHTFKQTPVDDIPSDTAKLIHHLQQRRCLLILDGLDESEKHYHQFIQQLSRAHHQSCIILTSREQPNIIESNTKTVRSLTLTGLPKDDAVKLLQARGFTGKEIGLSPLIQLYRGNPLALKLVTPLIQSVFGGNIAAFLSQNTIVIGDRLRAILKQQFEQLSDLEQNILYWLAIWQQPISFSRLQTHLLISLDPATVLDAIVSLERRSLLEKWICSDAPAFTLQPLVMKIATDELVERATQEIIQVMQSRDIADFKVLRTHWLLRPGSDDIVGDRILHQLQEKLWQIYGANLVQNLQQILLLLNDKSPLTIGYIACNITTIITKGV
MGSDKIHHHHHHMSNTNDLLNRINAKYSTMSKGHKLLATYITDNYDKAVFLTAAKMGETVGISESTVVRFATSLGYKGYPDFQKALEELVRNKLNSVQRMEVTYGRISQSQILETVLQSDRDKIKTTLEKIDADAFDLAVDTILQSRKIYIVGIRSCAPLASFLAFYMNLMFEDVCLLTTNSSSELFEQMVRIGKDDVIIGISFPRYSMRTLKALEFANNRSAKVITITDSIHSPMNLYSSCNLIADSDMASIVDSLVAPLSVINALIVALCMKKQNIVAKTLTELEDIWNEYQVYENDEIDYIDDSIKVHYAKLGDSQDE
MGSDKIHHHHHHMSQQASLPDDDNWLLEDTDGDEAGRPSEVRKPWKVLIVDDEKDVHTATRIALRGISYKERPLELLSAYSGAEAFQMLQQHADIALIMLDVVMESEDAGLRLVHRIREELDNGVVRIVLRTGQPGQAPEQEVILNYDINDYKTKTELTTQKLFTTTIASLRAYENLVSLEKNRQGLAKILESASDLYQLHSLREFASGVLRQISALLDIGTDGILCVRNDNLVGRPELEILAVSGAYEYLAESGDLSNEPHLAAVFQQVFKEKRSIYQHPYDVLYISSRNRREFAVHFMPQWPLDSVERDLLDVFCQRISAAYDNLYLYNQLRSAQEATVVALADLAEFRDTDTGDHVLRVQKLTDAIAEEMVSHNHYPELMTHEFMDMVGMASILHDIGKVATPDHILLKPGKLDPEERAIMEQHATIGAQILAKSAQLVEGASYLSLGSEIAGGHHEHFDGNGYPGKLQGQAIPLSARIVAVVDVFDALLNKRPYKEPWSMEDTMKYINGRSGTQFDPHVVAALSRLVSEDRLPVQFGD
MGSDKIHHHHHHMSQRLQALYGLKWNPFSPELPLEALYVPPRVENFCWRIENALVREGGFAMIHGEPGTGKSVVMRVLAEKLERLTDLTVVSINHPQSNLADFYREMGDIFGLELRPHNRWGGFRSLRDRWMSHLQSTRRRPILLIDEAQEMSPGVLNELRLMASARFDSQPLLCVVLAGDTRLTDKLRRDELLPLGSRIRSRLGTEKASADDLLACLDHLLASAGAPQLMTPPLRHTLCEHALGNYRVLTTLANELLTTAAQRELSELDEKLYFEVFAPSTQSSRRTPARQPNGAR
MGSDKIHHHHHHMSRGIYIVANDRVIDNAIALLNSIRYYDPEVTIYLIPFNENYHKVAEQLSTLHKVQIFPDLELIDKFTKRIGEIFDRDFLALPNKMRKLVAWFGPLDEFIYIDTDIVVFEKIADNLDKLSEVDFFCCDYHYANDKLRNIFSPFVKEQQLFSDAQLQDVFNSGFWASRKGVITEEQMDEALRECAAHREYFDFSEGVTDQPILNYLVLKLIDKRGNLVKIPGGGPGSWAGSQSFQQQDYALYDRGQRLKYLHWAGTRMKTGSPYWQLWEHYRYLHEGKFAFISKLTRRLFPFVAART
MGSDKIHHHHHHMSRITDYGFLFQTTFGTSKTNLVNNIQLSQMNSSSVQKQLKAAGIDTNSKKYKAALSEMMKNGNGAMFTNVQAIKNLMSQYDKNGDWIDPNTGLTGLAVTDENRNSYKHIISIPESSREEMFELAKKEFLNENGTLNGDTTKRESVYNNLYRKMDKDDRLSAGWTMEQYEHQYRQAFAEAAKAADPTWKAGKPIPAGALDGITRESVESGKKSVDIKI
MGSDKIHHHHHHMSRMIRFHKFGAADVLRCEEQAEPSPAADEVQIRVEAVGVSWYDVLWRQNLAPSQARLPAGIGHEMAGVVTAVGEGVDDIAVGDRVASFPATSANDHPVYGDVIVLPRTAITRYPNVLTPIEASVHYTPLLIAYFAYVDLARAKAGQTALVTDASHCAGPAFVQLGRALGLKVFAATKEAAQRDYLLGLGADKVIVTEEQDLLLQIGKYTDGRGVDMVLDGMGGPQMSLLGDVLAPRGSLVLYGLQGGNQTPFPACAAFQKNIQFYVHCIGNFTGKPELGISQDQVALQRALRDINQFTADQLLTPQIIKVYPFEQVVEAHRYMDQCPCGGRVVLDMAQH

Source: the DeepSol protein solubility set
